Experiments:
DDX17 Core WT [1] = target: T1, DDX17 Core WT (human, UniProt Q92841-1 32-477); assay: X-ray crystallography
DDX17 Core WT [2] = target: T1, DDX17 Core WT; assay: EMSA
DDX17 Core WT [3] = target: T1, DDX17 Core WT; assay: X-ray crystallography; remark: listed apart in the source

T1 sequence (Q92841 111-556): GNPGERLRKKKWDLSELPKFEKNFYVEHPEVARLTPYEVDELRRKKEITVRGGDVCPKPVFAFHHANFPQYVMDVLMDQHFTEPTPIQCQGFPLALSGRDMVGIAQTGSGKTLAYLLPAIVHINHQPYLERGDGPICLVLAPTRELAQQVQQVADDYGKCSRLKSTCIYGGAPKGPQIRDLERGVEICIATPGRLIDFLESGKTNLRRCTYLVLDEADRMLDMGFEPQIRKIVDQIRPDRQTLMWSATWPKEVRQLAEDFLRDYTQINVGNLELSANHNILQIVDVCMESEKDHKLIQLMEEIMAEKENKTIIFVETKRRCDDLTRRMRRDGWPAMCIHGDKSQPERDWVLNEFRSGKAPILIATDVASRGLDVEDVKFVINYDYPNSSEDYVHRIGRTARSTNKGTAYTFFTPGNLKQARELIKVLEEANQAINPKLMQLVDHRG

Binder | binding result (DDX17 Core WT [1]) | also measured
ACACACCUGG (ssRNA) [125a-oligo2] | binds | 
AAAAAAAAAA (ssRNA) [rA10] |  | binding result (DDX17 Core WT [2]): no binding
UUUUUUUUUU (ssRNA) [rU10] |  | binding result (DDX17 Core WT [3]): binds
AUUCAUCCAA (ssRNA) [18a-oligo1] | binds | 
CACACACCUG (ssRNA) [125a-oligo1] | binds | 
